From the supplement of paper PMC7877785
± gives the uncertainty stated by the source.

Test: self-splicing fitness, log relative to wild type (ln ratio); higher = more splicing; Tetrahymena group I intron in knt gene, E. coli kanamycin selection, DiMSum; sequences stand for … in CUCUCU…GGAGGGAAAAGUUAUCAGGCAUGCACCUGGUAGCUAGUCUUUAAACCAAUAGAUUGCAUCGGUUUAAAAGGCAAGACCGUCAAAUUGCGGGAAAGGGGUCAACAGCCGUUCAGUACCAAGUCUCAGGGGAAACUUUGAGAUGGCCUUGCAAAGGGUAUGGUAAUAAGCUGACGGACAUGGUCCUAACCACGCAGCCAAGUCCUAAGUCAACAGAUCUUCUGUUGAUAUGGAUGCAGUUCACAGACUAAAUGUCGGUCGGGGAAGAUGUAUUCUUCUCAUAAGAUAUAGUCGGACCUCUCCUUAAUGGGAGCUAGCGGAUGAAGUGAUGCAACACUGGAGCCGCUGGGAACUAAUUUGUAUGCGAAAGUAUAUUGAUUAGUUUUGGAGUACUCGUGGUCG
Method in brief: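 A randomised library covering all eight P1ex-region intron nucleotides was built with the intron in the knt kanamycin-resistance gene on pET-22b(+) and held in E. coli BL21(DE3). Cells were grown overnight at 37°C or 30°C on LB agar, with or without 25 μg/mL kanamycin, plus 100 μg/mL carbenicillin, 50 μM IPTG and 0.2% rhamnose, and pooled colonies were amplicon-sequenced on an Illumina HiSeq 2500. DiMSum fitness is the error-weighted combination of wild-type-normalised replicate fold changes, kanamycin versus none.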

Sequence | self-splicing fitness (ln) (30 °C) | self-splicing fitness (ln) (37 °C)
UAAGAGCAAUAUUACGGCGU | -1.79 ± 0.13 | -2.39 ± 0.31
UCAAAGCAAUAUUACGUGUC | -3.25 ± 0.22 | -1.69 ± 0.19
CAUGAGCAAUAUUACGCCCG | -1.56 ± 0.18 | -0.89 ± 0.2
UUGAAGCAAUAUUACGUCAC | -3.27 ± 0.21 | -1.25 ± 0.2
AAUCAGCAAUAUUACGUAGA | -0.378 ± 0.071 | -0.124 ± 0.089
UAGAAGCAAUAUUACGCUAG | -1.18 ± 0.13 | -0.412 ± 0.16
UAUAAGCAAUAUUACGGACA | -0.702 ± 0.11 | 0.416 ± 0.13
CAGAAGCAAUAUUACGUACC | -2.33 ± 0.24 | -1.55 ± 0.27
UUGAAGCAAUAUUACGGCCU | -0.822 ± 0.13 | -0.147 ± 0.16
GUGAAGCAAUAUUACGUCGG | -0.498 ± 0.077 | 0.15 ± 0.1
AAUUAGCAAUAUUACGUGCC | -1.48 ± 0.082 | -0.857 ± 0.11
GCAGAGCAAUAUUACGCAAC | -1.53 ± 0.35 | -2.13 ± 0.43
AGAGAGCAAUAUUACGAUGC | -3.3 ± 0.48 | –
CCGAAGCAAUAUUACGUACU | -3.91 ± 0.27 | -2.39 ± 0.19
CGCGAGCAAUAUUACGGGUU | -3.62 ± 0.2 | -2.44 ± 0.2
GUAUAGCAAUAUUACGAACC | -2.63 ± 0.43 | -0.238 ± 0.23
GCCAAGCAAUAUUACGCGGU | -3.73 ± 0.2 | -3.25 ± 0.27
ACGCAGCAAUAUUACGAUGC | -3.44 ± 0.27 | -1.56 ± 0.21
AUAUAGCAAUAUUACGCGCA | -0.342 ± 0.15 | -0.724 ± 0.14
UCGGAGCAAUAUUACGCGGG | -4.21 ± 0.31 | -2.77 ± 0.27
GAAGAGCAAUAUUACGAUUC | -3.57 ± 0.26 | -2.45 ± 0.28
UUAGAGCAAUAUUACGAAAA | -1.66 ± 0.13 | -0.776 ± 0.15
ACAGAGCAAUAUUACGCGAG | -2.31 ± 0.14 | -2.43 ± 0.16
UCAAAGCAAUAUUACGGAAA | -2.64 ± 0.41 | -1.15 ± 0.19
UGAUAGCAAUAUUACGUUCU | -1.68 ± 0.11 | 0.264 ± 0.11
AGCGAGCAAUAUUACGUCGG | -3.45 ± 0.32 | -2.08 ± 0.25

Sequence | self-splicing fitness (ln) (30 °C) | self-splicing fitness (ln) (37 °C)
CAGAAGCAAUAUUACGGGGC | -3.13 ± 0.17 | -2.89 ± 0.27
AGAGAGCAAUAUUACGUGGU | -3.49 ± 0.29 | -3.6 ± 0.37
UCGCAGCAAUAUUACGACCU | -3.1 ± 0.41 | -1.37 ± 0.27
GUGAAGCAAUAUUACGAUUU | -0.586 ± 0.051 | 0.316 ± 0.091
CUGGAGCAAUAUUACGUCAA | -2.69 ± 0.44 | -1.19 ± 0.47
UUAAAGCAAUAUUACGGAAU | -3.11 ± 0.17 | -1.73 ± 0.17
CGUAAGCAAUAUUACGGCGA | -2.31 ± 0.2 | -2.02 ± 0.25
GAGUAGCAAUAUUACGUGGA | -3.37 ± 0.28 | -2.52 ± 0.17
GAGCAGCAAUAUUACGGUUA | -0.804 ± 0.1 | -0.875 ± 0.1
AUAAAGCAAUAUUACGAAUA | -0.578 ± 0.14 | -0.302 ± 0.26
GAGAAGCAAUAUUACGACUC | -2.38 ± 0.18 | -1.82 ± 0.23
AAGCAGCAAUAUUACGAGGU | -3.55 ± 0.16 | -2.65 ± 0.19
AAGCAGCAAUAUUACGUCCA | -0.662 ± 0.089 | -0.156 ± 0.1
UCCUAGCAAUAUUACGCGAG | -3.06 ± 0.27 | -3.22 ± 0.37
UACCAGCAAUAUUACGCACC | -1.52 ± 0.26 | -0.172 ± 0.21
AUCAAGCAAUAUUACGCAAC | -2.61 ± 0.14 | -2.37 ± 0.22
AUCUAGCAAUAUUACGUGUU | -2.71 ± 0.17 | -2.54 ± 0.17
GAUUAGCAAUAUUACGGUAU | -1.75 ± 0.12 | -1.14 ± 0.14
AUCUAGCAAUAUUACGCAUG | -1.88 ± 0.13 | -0.806 ± 0.12
UUGCAGCAAUAUUACGCUGA | -3.27 ± 0.26 | -1.68 ± 0.17
GAGGAGCAAUAUUACGCCAC | – | -2.39 ± 0.37
GAGCAGCAAUAUUACGGACU | -1.32 ± 0.082 | -0.127 ± 0.11
AGCUAGCAAUAUUACGUCGU | -1.38 ± 0.1 | -1.4 ± 0.14
CGCAAGCAAUAUUACGCGCC | -3.06 ± 0.21 | -1.54 ± 0.17
CAUCAGCAAUAUUACGCGGA | -3.61 ± 0.27 | -2.6 ± 0.29
GCUAAGCAAUAUUACGCUCA | -1 ± 0.11 | -1.52 ± 0.14

Sequence | self-splicing fitness (ln) (30 °C) | self-splicing fitness (ln) (37 °C)
CUACAGCAAUAUUACGGUAC | -2.81 ± 0.13 | -1.13 ± 0.18
CCACAGCAAUAUUACGCGGG | -3.14 ± 0.12 | -2.77 ± 0.16
CUAUAGCAAUAUUACGGACG | 0.217 ± 0.093 | 0.437 ± 0.12
UAGAAGCAAUAUUACGUUAG | -2.51 ± 0.1 | -0.338 ± 0.093
AUGGAGCAAUAUUACGGAAA | -3.4 ± 0.37 | -2.35 ± 0.29
CCACAGCAAUAUUACGGUAG | -0.799 ± 0.046 | -0.163 ± 0.065
GCGUAGCAAUAUUACGCACC | -4.01 ± 0.37 | -1.49 ± 0.34
UAUGAGCAAUAUUACGGUUC | -3.43 ± 0.19 | -3.82 ± 0.46
UGCGAGCAAUAUUACGACCG | -1.72 ± 0.17 | 0.112 ± 0.21
UGAUAGCAAUAUUACGCAUG | -1.23 ± 0.078 | -0.48 ± 0.1
GGGAAGCAAUAUUACGCAAA | -1.9 ± 0.24 | -2 ± 0.17
AUCGAGCAAUAUUACGUUUG | -4.29 ± 0.3 | -2.05 ± 0.21
AUACAGCAAUAUUACGCUAG | -1.61 ± 0.079 | -1.23 ± 0.096
UAGCAGCAAUAUUACGAGGA | -3.39 ± 0.17 | -2.06 ± 0.13
AUCCAGCAAUAUUACGAGAU | -3.77 ± 0.2 | -2.22 ± 0.19
AUGCAGCAAUAUUACGGCCU | 0.794 ± 0.13 | 0.0607 ± 0.16
ACUUAGCAAUAUUACGAGGG | -3.07 ± 0.24 | -2.65 ± 0.23
CACAAGCAAUAUUACGUUCG | -0.461 ± 0.048 | 0.012 ± 0.06
UUUCAGCAAUAUUACGAGCG | -0.768 ± 0.09 | -0.289 ± 0.11
CUGUAGCAAUAUUACGUCAC | -3.21 ± 0.24 | –
CCACAGCAAUAUUACGCCGU | -2.9 ± 0.24 | -1.87 ± 0.24
CUGUAGCAAUAUUACGUCAU | -4.07 ± 0.3 | -3.14 ± 0.24
GCUAAGCAAUAUUACGAACC | -0.414 ± 0.15 | 1.05 ± 0.23
CGCGAGCAAUAUUACGAUAG | -1.05 ± 0.13 | -0.593 ± 0.16
CCCGAGCAAUAUUACGCUAA | -2.14 ± 0.27 | -1.99 ± 0.2
